Source: article PMC4164947 (The Journal of Cell Biology, 2014)

Tests used:
[1] = target: C. elegans Vps4^E219Q (as used alone in light scattering and EM) (C. elegans); assay: SEC-MALS
[2] = target: C. elegans Vps32 (full length, wild type) (C. elegans); assay: cryo-EM imaging
[3] = target: C. elegans Vps32^E94K (C. elegans); assay: SEC
negative staining EM = target: the molecule itself; assay: negative staining EM

With “C. elegans Vps4^E219Q (as used alone in light scattering and EM) (enzyme)” as the molecule, how does the stoichiometry N [1] read?
Its stoichiometry N is 6.

With “C. elegans Vps32 (full length, wild type) (natural protein)” as the molecule, how does the stoichiometry N [2] read?
Its stoichiometry N is 800.

How did the percent of the total protein in oligomers [3] turn out when C. elegans Vps32^E94K (natural protein) was run?
The percent of the total protein in oligomers was under 5%.

B1: yeast Snf7^R52E (natural protein)
chain: MWSSLFGWTSSNAKNKESPTKAIVRLREHINLLSKKQSHLRTQITNQENEAEIFLTKGNKVMAKNALKKKKTIEQLLSKVEGTMESMEQQLFSIESANLNLETMRAMQEGAKAMKTIHSGLDIDKVDETMDEIREQVELGDEISDAISRPLITGANEVDEDELDEELDMLAQENANQETSKIVNNNVNAAPISENKVSLPSVPSNKIKQSENSVKDGEEEEDEEDEDEKALRELQAEMGL
Does B1 bind (negative staining EM)?
Result: binds
